According to patent publication US20090325867A1, “RECEPTOR-SPECIFIC TUMOUR NECROSIS FACTOR-RELATED APOPTOSIS-INDUCING LIGAND (TRAIL) VARIANTS” (MEDICAL RESEARCH COUNCIL, priority 2005, published 2009):

B1: TRAIL.R1-5: 6His TRAIL 95-281 with 193Ser, 199Val, 201Arg, 213Trp and 215Asp (protein)
chain: TSEETISTVQEKQQNISPLVRERGPQRVAAHITGTRGRSNTLSSPNSKNEKALGRKINSWESSRSGHSFLSNLHLRNGELVIHEKGFYYIYSQTYFRFSEEIKEVTRNDKQMVQYIYKWTDYPDPILLMKSARNSCWSKDAEYGLYSIYQGGIFELKENDRIFVSVTNEHLIDMDHEASFFGAFLVG
modifications: biotin (site not stated) in the DISC analysis only; not biotinylated in the apoptosis assays
notes: 6His TRAIL 95-281 with 193Ser, 199Val, 201Arg, 213Trp and 215Asp
B2: HGS-ETR2 (antibody, INN chains, looked up, V domains shown)
VH: EVQLVQSGGGVERPGGSLRLSCAASGFTFDDYGMSWVRQAPGKGLEWVSGINWNGGSTGYADSVKGRVTISRDNAKNSLYLQMNSLRAEDTAVYYCAKILGAGRGWYFDLWGKGTTVTVSS
VL: SSELTQDPAVSVALGQTVRITCQGDSLRSYYASWYQQKPGQAPVLVIYGKNNRPSGIPDRFSGSSSGNTASLTITGAQAEDEADYYCNSRDSSGNHVVFGGGTKLTVL

Key:
Ramos cells [1] = assay: Apoptosis by phosphatidylserine (PS) externalization in Ramos cells; format: cell-based; conditions: for ability to induce apoptosis in Ramos cells (in words): PS externalization, compared with wt TRAIL
Jurkat cells = assay: Caspase-8 and -3 processing by Western blot in Jurkat cells; format: cell-based; conditions: FIG. 1D
Method: (§1) Cells were also exposed to HGS-ETR1 or HGSETR2 (1 μg ml^−1). C: Ramos or Jurkat cells were pre-incubated for 30 min either alone or with TRAIL-R1 blocking Ab or TRAIL-R2 neutralizing Ab (5 μg ml^−1). […] D: Ramos and Jurkat cells were exposed to wt TRAIL or TRAIL mutants as described above and processing of caspase-3 and -8 determined by Western blot analysis. The asterisk indicates a non-specific band. The lower panel of the blot for detection of the caspase-8 p18 subunit was exposed for twice as long as the upper panel. Apoptosis was assessed by phosphatidylserine externalization and results expressed as the Means±SEM of at least 3 separate determinations.
(§2) Apoptosis was quantified by phosphatidylserine (PS) externalization in the presence of propidium iodide as described (MacFarlane et al., 2002 ibid.). Samples for Western blot analysis were prepared and caspase processing detected as described (Inoue et al., 2004 ibid.; MacFarlane et al., 2005 ibid.).
(§3) To confirm that the mutants were inducing apoptosis, we examined their effects on the processing of caspase-8, the apical caspase in death receptor-induced apoptosis and caspase-3, an effector caspase.

Ramos cells [2] = assay: Caspase-8 and -3 processing by Western blot in Ramos cells; format: cell-based; conditions: FIG. 1D
Method: as §1, §2, §3

primary MCL cells = assay: Apoptosis in freshly isolated primary MCL cells with or without depsipeptide pre-treatment; format: cell-based, human; conditions: pre-treatment 16 h with depsipeptide (5 nM), depsipeptide alone 35.4±5%
Method: Cell lines were also pre-incubated for 30 min with a TRAIL-R1 blocking Ab and a TRAIL-R2 neutralizing Ab from Alexis and R&D systems, respectively, prior to exposure to TRAIL. Freshly isolated cells from patients with MCL were isolated, purified and incubated with different forms of TRAIL as described above for CLL cells. Samples were either analyzed immediately for apoptosis or stored at −80° C. for subsequent Western blotting. Other methods and reagents were as described (Inoue (2004 Cell Death Differ 11 Suppl 2, S193-206); MacFarlane et al., 2005 ibid).
as §2
We also obtained three samples from patients with mantle cell lymphoma (MCL), an incurable and aggressive disease that accounts for ˜6% of all non-Hodgkin's lymphoma. There are no standard treatments for MCL and the prognosis is very poor particularly for the blastoid variant. MCL cells were isolated and exposed to the different forms of TRAIL after pre-treatment for 16 h with depsipeptide (5 nM).

primary CLL cells = assay: Apoptosis in freshly isolated CLL cells after depsipeptide; format: cell-based, human; conditions: depsipeptide 10 nM 16 h, then 6 h ligand or antibody, FIG. 2C
Method: After exposure of the cells for 30 min, DISC complexes were isolated and analyzed for the indicated proteins by Western blotting. To provide an unstimulated receptor control (u/s), biotinylated wt or mutant TRAIL was added to lysate from untreated cells. C: Freshly isolated cells from patients with CLL were incubated for 16 h either alone or in the presence of depsipeptide (10 nM). […] The different symbols used indicate data from six individual patients and the solid line indicates the Mean.
Ramos, an Epstein-Barr virus-negative Burkitt's lymphoma cell line, and Jurkat T cells (clone E6-1) were cultured as described (MacFarlane et al (2005 Cell Death and Differentiation vol 12 pages 773-782)). Blood samples were obtained from CLL patients, with patient consent and local ethical committee approval and CLL cells purified as described (MacFarlane et al (2002 Oncogene 21, 6809-6818). Cells were incubated for 16 h with depsipeptide (10 nM), provided by Dr. E. Sausville (NCI, USA). Cells were then cultured for a further 6 h with either HGSETR1 or HGS-ETR2, agonistic mAbs to TRAIL-R1 or -R2, respectively (Human Genome Sciences, Rockville, Md.), His-TRAIL-LE (a recombinant TRAIL with low endotoxin—Alexis Corporation, Nottingham, UK), His-TRAIL, a similar form of human recombinant TRAIL (MacFarlane et al (1997 J Biol Chem 272, 25417-25420)) but not further purified to reduce endotoxin levels or a mutant form of His-TRAIL as described (MacFarlane et al., 2005 ibid.). Cell lines were also pre-incubated for 30 min with a TRAIL-R1 blocking Ab and a TRAIL-R2 neutralizing Ab from Alexis and R&D systems, respectively, prior to exposure to TRAIL. Freshly isolated cells from patients with MCL were isolated, purified and incubated with different forms of TRAIL as described above for CLL cells. Samples were either analyzed immediately for apoptosis or stored at −80° C. for subsequent Western blotting. Other methods and reagents were as described (Inoue (2004 Cell Death Differ 11 Suppl 2, S193-206); MacFarlane et al., 2005 ibid).
as §2

Molecule	inhibition of ligand-induced apoptosis by receptor blocking antibodies (Ramos cells [1]; 30 min pre-incubation with TRAIL-R1 blocking Ab or TRAIL-R2 neutralizing Ab (5 μg ml^−1))	concentration-response of apoptosis compared with wt TRAIL (Ramos cells [1]; 4 h, FIG. 1B)	% PS+ cells, Ramos (Ramos cells [1]; 4 h exposure, 500 ng ml^−, Mean ± SEM of at least three determinations) [%]	ability to induce apoptosis in Ramos cells (in words) (Ramos cells [1])	processing of caspases-8 and -3 (Jurkat cells)	processing of caspase-8 and caspase-3 (Ramos cells [2])	apoptosis, ligand or antibody after depsipeptide pre-treatment (primary MCL cells) [%]	sensitization of CLL cells to induced apoptosis by depsipeptide (primary CLL cells)
B1	blocking antibody specific to TRAIL-R1 but not to TRAIL-R2 to inhibit apoptosis	very similar concentration-response to wt TRAIL	35.9 ± 6.4	retained most of the activity of wt TRAIL	small amount of caspase processing	induced the processing	54.3±9.1	sensitized CLL cells
B2	–	–	–	not in Ramos cells	most potent	not	38.3±4.3	not
